Measured values reported in the RNAGym collection of RNA variant scans (doi:10.7554/elife.80360).

B1: Hammerhead Ribozyme (parent)
chain: ACCGGAUGUGCUUUCCGGUCUGAUGAGUCCGUGAGGACGAAACAG

Variants of: B1
Assay: self-cleavage, relative activity (ratio to wild type); higher = more cleavage; co-transcriptional

Variant | self-cleavage
ACCGGAUGUGUUUUCCGGUCUGAUGAGUCCGUGAGGACGCAACAG [C11U A40C] | 0.438
ACCGGAUGUGUUUUCCGGUCUGAUGAGUCCGUGAGGACGGAACAG [C11U A40G] | 0.342
ACCGGAUGUGUUUUCCGGUCUGAUGAGUCCGUGAGGACGUAACAG [C11U A40U] | 0.296
ACCGGAUGUGUUUUCCGGUCUGAUGAGUCCGUGAGGACGACACAG [C11U A41C] | 0.337
ACCGGAUGUGUUUUCCGGUCUGAUGAGUCCGUGAGGACGAGACAG [C11U A41G] | 0.386
ACCGGAUGUGUUUUCCGGUCUGAUGAGUCCGUGAGGACGAUACAG [C11U A41U] | 0.278
ACCGGAUGUGUUUUCCGGUCUGAUGAGUCCGUGAGGACGAACCAG [C11U A42C] | 0.388
ACCGGAUGUGUUUUCCGGUCUGAUGAGUCCGUGAGGACGAAGCAG [C11U A42G] | 0.304
ACCGGAUGUGUUUUCCGGUCUGAUGAGUCCGUGAGGACGAAUCAG [C11U A42U] | 0.377
ACCGGAUGUGUUUUCCGGUCUGAUGAGUCCGUGAGGACGAAACCG [C11U A44C] | 0.474
ACCGGAUGUGUUUUCCGGUCUGAUGAGUCCGUGAGGACGAAACGG [C11U A44G] | 1.35
ACCGGAUGUGUUUUCCGGUCUGAUGAGUCCGUGAGGACGAAACUG [C11U A44U] | 0.497
ACCGGAUGUGUUUUACGGUCUGAUGAGUCCGUGAGGACGAAACAG [C11U C15A] | 1.02
ACCGGAUGUGUUUUGCGGUCUGAUGAGUCCGUGAGGACGAAACAG [C11U C15G] | 1.04
ACCGGAUGUGUUUUUCGGUCUGAUGAGUCCGUGAGGACGAAACAG [C11U C15U] | 1.18
ACCGGAUGUGUUUUCAGGUCUGAUGAGUCCGUGAGGACGAAACAG [C11U C16A] | 0.886
ACCGGAUGUGUUUUCGGGUCUGAUGAGUCCGUGAGGACGAAACAG [C11U C16G] | 0.684
ACCGGAUGUGUUUUCUGGUCUGAUGAGUCCGUGAGGACGAAACAG [C11U C16U] | 0.817
ACCGGAUGUGUUUUCCGGUAUGAUGAGUCCGUGAGGACGAAACAG [C11U C20A] | 0.441

Variant | self-cleavage
ACCGGAUGUGUUUUCCGGUGUGAUGAGUCCGUGAGGACGAAACAG [C11U C20G] | 0.327
ACCGGAUGUGUUUUCCGGUUUGAUGAGUCCGUGAGGACGAAACAG [C11U C20U] | 0.544
ACCGGAUGUGUUUUCCGGUCUGAUGAGUACGUGAGGACGAAACAG [C11U C29A] | 0.329
ACCGGAUGUGUUUUCCGGUCUGAUGAGUGCGUGAGGACGAAACAG [C11U C29G] | 0.646
ACCGGAUGUGUUUUCCGGUCUGAUGAGUUCGUGAGGACGAAACAG [C11U C29U] | 0.897
ACCGGAUGUGUUUUCCGGUCUGAUGAGUCAGUGAGGACGAAACAG [C11U C30A] | 0.765
ACCGGAUGUGUUUUCCGGUCUGAUGAGUCGGUGAGGACGAAACAG [C11U C30G] | 0.714
ACCGGAUGUGUUUUCCGGUCUGAUGAGUCUGUGAGGACGAAACAG [C11U C30U] | 0.736
ACCGGAUGUGUUUUCCGGUCUGAUGAGUCCGUGAGGAAGAAACAG [C11U C38A] | 0.511
ACCGGAUGUGUUUUCCGGUCUGAUGAGUCCGUGAGGAGGAAACAG [C11U C38G] | 0.611
ACCGGAUGUGUUUUCCGGUCUGAUGAGUCCGUGAGGAUGAAACAG [C11U C38U] | 1.02
ACCGGAUGUGUUUUCCGGUCUGAUGAGUCCGUGAGGACGAAAAAG [C11U C43A] | 0.36
ACCGGAUGUGUUUUCCGGUCUGAUGAGUCCGUGAGGACGAAAGAG [C11U C43G] | 0.392
ACCGGAUGUGUUUUCCGGUCUGAUGAGUCCGUGAGGACGAAAUAG [C11U C43U] | 0.529
ACCGGAUGUGUUUUCCAGUCUGAUGAGUCCGUGAGGACGAAACAG [C11U G17A] | 0.475
ACCGGAUGUGUUUUCCCGUCUGAUGAGUCCGUGAGGACGAAACAG [C11U G17C] | 0.43
ACCGGAUGUGUUUUCCUGUCUGAUGAGUCCGUGAGGACGAAACAG [C11U G17U] | 0.405
ACCGGAUGUGUUUUCCGAUCUGAUGAGUCCGUGAGGACGAAACAG [C11U G18A] | 0.428
ACCGGAUGUGUUUUCCGCUCUGAUGAGUCCGUGAGGACGAAACAG [C11U G18C] | 0.319

Variant | self-cleavage
ACCGGAUGUGUUUUCCGUUCUGAUGAGUCCGUGAGGACGAAACAG [C11U G18U] | 0.469
ACCGGAUGUGUUUUCCGGUCUAAUGAGUCCGUGAGGACGAAACAG [C11U G22A] | 0.382
ACCGGAUGUGUUUUCCGGUCUCAUGAGUCCGUGAGGACGAAACAG [C11U G22C] | 0.339
ACCGGAUGUGUUUUCCGGUCUUAUGAGUCCGUGAGGACGAAACAG [C11U G22U] | 0.341
ACCGGAUGUGUUUUCCGGUCUGAUAAGUCCGUGAGGACGAAACAG [C11U G25A] | 0.39
ACCGGAUGUGUUUUCCGGUCUGAUCAGUCCGUGAGGACGAAACAG [C11U G25C] | 0.248
ACCGGAUGUGUUUUCCGGUCUGAUUAGUCCGUGAGGACGAAACAG [C11U G25U] | 0.318
ACCGGAUGUGUUUUCCGGUCUGAUGAAUCCGUGAGGACGAAACAG [C11U G27A] | 0.666
ACCGGAUGUGUUUUCCGGUCUGAUGACUCCGUGAGGACGAAACAG [C11U G27C] | 0.58
ACCGGAUGUGUUUUCCGGUCUGAUGAUUCCGUGAGGACGAAACAG [C11U G27U] | 0.487
ACCGGAUGUGUUUUCCGGUCUGAUGAGUCCAUGAGGACGAAACAG [C11U G31A] | 1.13
ACCGGAUGUGUUUUCCGGUCUGAUGAGUCCCUGAGGACGAAACAG [C11U G31C] | 0.937
ACCGGAUGUGUUUUCCGGUCUGAUGAGUCCUUGAGGACGAAACAG [C11U G31U] | 1.35
ACCGGAUGUGUUUUCCGGUCUGAUGAGUCCGUAAGGACGAAACAG [C11U G33A] | 0.95
ACCGGAUGUGUUUUCCGGUCUGAUGAGUCCGUCAGGACGAAACAG [C11U G33C] | 0.659
ACCGGAUGUGUUUUCCGGUCUGAUGAGUCCGUUAGGACGAAACAG [C11U G33U] | 1.04
ACCGGAUGUGUUUUCCGGUCUGAUGAGUCCGUGAAGACGAAACAG [C11U G35A] | 0.64
ACCGGAUGUGUUUUCCGGUCUGAUGAGUCCGUGACGACGAAACAG [C11U G35C] | 0.588
ACCGGAUGUGUUUUCCGGUCUGAUGAGUCCGUGAUGACGAAACAG [C11U G35U] | 0.846
